B1: Stage IV sporulation protein FB (Bacillus subtilis), P26937 (parent)
chain: MNKWLDLILKIHVHPFLWIIAALGLLTGHMKALLCLLLIVLIHELGHAALAVFFSWRIKRVFLLPFGGTVEVEEHGNRPLKEEFAVIIAGPLQHIWLQFAAWMLAEVSVIHQHTFELFTFYNLSILFVNLLPIWPLDGGKLLFLLFSKQLPFQKAHRLNLKTSLCFCLLLGCWVLFVIPLQISAWVLFVFLAVSLFEEYRQRHYIHVRFLLERYYGKNRELEKLLPLTVKAEDKVYHVMAEFKRGCKHPIIIEKSGQKLSQLDENEVLHAYFADKRTNSSMEELLLPY
partner: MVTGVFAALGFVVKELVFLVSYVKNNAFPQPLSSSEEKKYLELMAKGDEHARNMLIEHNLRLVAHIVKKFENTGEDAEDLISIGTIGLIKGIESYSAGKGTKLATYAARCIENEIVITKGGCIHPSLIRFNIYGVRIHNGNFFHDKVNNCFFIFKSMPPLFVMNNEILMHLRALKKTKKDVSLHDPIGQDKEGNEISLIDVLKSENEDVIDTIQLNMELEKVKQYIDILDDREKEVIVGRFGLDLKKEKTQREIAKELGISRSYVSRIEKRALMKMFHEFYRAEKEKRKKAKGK

Variants of: B1
Conditions: with rpsk_bacsu sigK

effect of a mutation on the interaction	Variant
disrupting interaction	E44Q
